Columns and labels:
Experiment in all cases: cell-based or functional assay
[1] = biological target: HIV-1 Env of KER2018.11 (HIV-1)
[2] = biological target: HIV-1 Env of TH976.17 (HIV-1)
[3] = biological target: HIV-1 Env of DU172.17 (HIV-1)
[4] = biological target: HIV-1 Env of RHPA.7 (HIV-1)
[5] = biological target: HIV-1 Env of MB201 (HIV-1)
[6] = biological target: HIV-1 Env of DU156.12 (HIV-1)
[7] = biological target: HIV-1 Env of CAP256.PI (HIV-1)
[8] = biological target: HIV-1 Env of 6535.3 (HIV-1)
[9] = biological target: HIV-1 Env of ZM53.12 (HIV-1)
[10] = biological target: HIV-1 Env of AC10.29 (HIV-1)
[11] = biological target: HIV-1 Env of 6405.v4.c34 (HIV-1)
[12] = biological target: HIV-1 Env of ZM249.1 (HIV-1)
[13] = biological target: HIV-1 Env of CAP45.G3 (HIV-1)
[14] = biological target: HIV-1 Env of TRJO.58 (HIV-1)
[15] = biological target: HIV-1 Env of CAP256.SU (HIV-1)
[16] = biological target: HIV-1 Env of CM244.ec1 (HIV-1)
[17] = biological target: HIV-1 Env of Q168.a2 (HIV-1)
[18] = biological target: HIV-1 Env of ZM135.10a (HIV-1)
[19] = biological target: HIV-1 Env of Q259.d2.17 (HIV-1)
[20] = biological target: HIV-1 Env of CAP210.E8 (HIV-1)
[21] = biological target: HIV-1 Env of KER2008.12 (HIV-1)
[22] = biological target: HIV-1 Env of THRO.18 (HIV-1)
[23] = biological target: HIV-1 Env of UG037.8 (HIV-1)
[24] = biological target: HIV-1 Env of WITO.33 (HIV-1)
[25] = biological target: HIV-1 Env of MB539.2B7 (HIV-1)
[26] = biological target: HIV-1 Env of CAAN.A2 (HIV-1)
[27] = biological target: HIV-1 Env of 96ZM651.02 (HIV-1)
[28] = biological target: HIV-1 Env of BG505.w6m (HIV-1)
[29] = biological target: HIV-1 Env of REJO.67 (HIV-1)
[30] = biological target: HIV-1 Env of Q23.17 (HIV-1)
[31] = biological target: HIV-1 Env of TRO.11 (HIV-1)
[32] = biological target: HIV-1 Env of QH0692.42 (HIV-1)
[33] = biological target: HIV-1 Env of ZM109.4 (HIV-1)
[34] = biological target: HIV-1 Env of PVO.04 (HIV-1)
[35] = biological target: HIV-1 Env of Q461.e2 (HIV-1)
[36] = biological target: HIV-1 Env of 3016.V5.c36 (HIV-1)
[37] = biological target: HIV-1 Env of DU422.01 (HIV-1)
[38] = biological target: HIV-1 Env of CAP244.D3 (HIV-1)
[39] = biological target: HIV-1 Env of RW020.2 (HIV-1)
[40] = biological target: HIV-1 Env of SC422.8 (HIV-1)
[41] = biological target: HIV-1 Env of ZM233.6 (HIV-1)
[42] = biological target: HIV-1 Env of Q842.d12 (HIV-1)
[43] = biological target: HIV-1 Env of C1080.c3 (HIV-1)
[44] = biological target: HIV-1 Env of CNE3 (HIV-1)
[45] = biological target: HIV-1 Env of Q769.d22 (HIV-1)
[46] = biological target: HIV-1 Env of ZM197.7 (HIV-1)
[47] = biological target: HIV-1 Env of ZM214.15 (HIV-1)
[48] = biological target: HIV-1 Env of 0260.v5.c36 (HIV-1)

B1: CAP256-VRC26.26 (antibody, V domains shown)
VH: EVQLVESGGGIVQPGRSLTLSCVASQFAFSHYGMHWVRQAPGKGLEWVASISRDETKKYHGDSVWDRFSISRDNSKNTLFLQMNSLRAEDTALYFCVRDQREDECEEWWSDYYDFGKELPCRKFRGLGLAGIFDVWGHGTMVIVSS
VL: QSALTQPPSVSAAPGQKVSISCSGNNSNIGNNFISWFQQFPGTAPKPLIYETYKRHSGIPDRFSGSKSGTSATLAITGLQTGDEADYYCATWGVRQGVGALFGTGTKVTVLG
[1]
  IC50 (neutralization, TZM-bl): 0.001 µg/mL
[2]
  IC50 (neutralization, TZM-bl): > 50 µg/mL
[3]
  IC50 (neutralization, TZM-bl): 0.5 µg/mL
[4]
  IC50 (neutralization, TZM-bl): > 50 µg/mL
[5]
  IC50 (neutralization, TZM-bl): > 50 µg/mL
[6]
  IC50 (neutralization, TZM-bl): 0.013 µg/mL
[7]
  IC50 (neutralization, TZM-bl): > 50 µg/mL
[8]
  IC50 (neutralization, TZM-bl): > 50 µg/mL
[9]
  IC50 (neutralization, TZM-bl): 0.001 µg/mL
[10]
  IC50 (neutralization, TZM-bl): > 50 µg/mL
[11]
  IC50 (neutralization, TZM-bl): > 50 µg/mL
[12]
  IC50 (neutralization, TZM-bl): 0.023 µg/mL
[13]
  IC50 (neutralization, TZM-bl): 0.08 µg/mL
[14]
  IC50 (neutralization, TZM-bl): > 50 µg/mL
[15]
  IC50 (neutralization, TZM-bl): 0.003 µg/mL
[16]
  IC50 (neutralization, TZM-bl): 0.047 µg/mL
[17]
  IC50 (neutralization, TZM-bl): 0.005 µg/mL
[18]
  IC50 (neutralization, TZM-bl): > 50 µg/mL
[19]
  IC50 (neutralization, TZM-bl): 0.011 µg/mL
[20]
  IC50 (neutralization, TZM-bl): 0.007 µg/mL
[21]
  IC50 (neutralization, TZM-bl): > 50 µg/mL
[22]
  IC50 (neutralization, TZM-bl): 0.667 µg/mL
[23]
  IC50 (neutralization, TZM-bl): > 50 µg/mL
[24]
  IC50 (neutralization, TZM-bl): > 50 µg/mL
[25]
  IC50 (neutralization, TZM-bl): 0.634 µg/mL
[26]
  IC50 (neutralization, TZM-bl): > 50 µg/mL
[27]
  IC50 (neutralization, TZM-bl): 0.111 µg/mL
[28]
  IC50 (neutralization, TZM-bl): 0.066 µg/mL
[29]
  IC50 (neutralization, TZM-bl): > 50 µg/mL
[30]
  IC50 (neutralization, TZM-bl): > 50 µg/mL
[31]
  IC50 (neutralization, TZM-bl): > 50 µg/mL
[32]
  IC50 (neutralization, TZM-bl): > 50 µg/mL
[33]
  IC50 (neutralization, TZM-bl): 0.025 µg/mL
[34]
  IC50 (neutralization, TZM-bl): 0.562 µg/mL
[35]
  IC50 (neutralization, TZM-bl): 0.024 µg/mL
[36]
  IC50 (neutralization, TZM-bl): 0.022 µg/mL
[37]
  IC50 (neutralization, TZM-bl): 0.08 µg/mL
[38]
  IC50 (neutralization, TZM-bl): 36.6 µg/mL
[39]
  IC50 (neutralization, TZM-bl): > 50 µg/mL
[40]
  IC50 (neutralization, TZM-bl): 1.74 µg/mL
[41]
  IC50 (neutralization, TZM-bl): 0.001 µg/mL
[42]
  IC50 (neutralization, TZM-bl): 17.1 µg/mL
[43]
  IC50 (neutralization, TZM-bl): 0.016 µg/mL
[44]
  IC50 (neutralization, TZM-bl): > 50 µg/mL
[45]
  IC50 (neutralization, TZM-bl): > 50 µg/mL
[46]
  IC50 (neutralization, TZM-bl): 0.011 µg/mL
[47]
  IC50 (neutralization, TZM-bl): 14.1 µg/mL
[48]
  IC50 (neutralization, TZM-bl): 0.78 µg/mL

— patent US20200199204A1 (UNITED STATES OF AMERICA AS REPRESENTED BY THE SECRETARY …, published 2020)
